This assay concerns the target gp59(C42)-Cy3, helicase loader protein of the T4 bacteriophage DNA replisome (bacteriophage T4) (UniProt P13342). The experiment in a line: FRET or BRET. A general note: BRET reads energy transfer from a luciferase to a nearby fluorophore.
Sequence of UniProt P13342 (P13342 whole entry): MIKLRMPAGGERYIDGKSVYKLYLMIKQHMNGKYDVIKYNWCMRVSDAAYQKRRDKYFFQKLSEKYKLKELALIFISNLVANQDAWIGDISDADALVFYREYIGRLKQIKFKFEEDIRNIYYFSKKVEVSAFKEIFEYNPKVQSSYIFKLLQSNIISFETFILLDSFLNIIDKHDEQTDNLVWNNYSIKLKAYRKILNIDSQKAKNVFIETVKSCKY

Consider “Cy5-N-gp43(exo-), T4 gp43 polymerase (from UniProt P04415 1-898) (enzyme)”, for which the duration of a single FRET event is over 80 s.

The record behind these values is paper PMC4183369.
